Laboratory results taken from patent US20260167721A1 (ABLEXIS, published 2026).

B1: CD3 × CD33-BspAb72 (bispecific antibody)
chain 1: EVQLVESGGGLVQPGGSLRLSCAASGFTFSSYSMNWVRQAPGKCLEWVSYISSSSSTIYYADSVKGRFTISRDNAKNSLYLQMNSLRDEDTAVYYCARDGPVDYGMDVWGQGTTVTVSSGGGGSGGGGSGGGGSGGGGSSYELTQPPSVSVSPGQTARITCSGDALPKQYTYWYQQKPGQAPVLVIYKDSERPSGIPERFSGSSSGTTVTLTISGVQAEDEADYYCQSADSSGTYRVFGCGTKLTVLDKTHTCPPCPAPEFEGGPSVFLFPPKPKDTLMISRTPEVTCVVVDVSHEDPEVKFNWYVDGVEVHNAKTKPREEQYNSTYRVVSVLTVLHQDWLNGKEYKCKVSNKALPASIEKTISKAKGQPREPQVYTLPPCREEMTKNQVSLWCLVKGFYPSDIAVEWESNGQPENNYKTTPPVLDSDGSFFLYSKLTVDKSRWQQGNVFSCSVMHEALHNHYTQKSLSLSPGK
chain 2: EVQLVQSGAEVKKPGSSVKVSCKASGYTITDSNIHWVRQAPGQSLEWIGYIYPYNGGTDYNQKFKNRATLTVDNPTNTAYMELSSLRSEDTAFYYCVNGNPWLAYWGQGTLVTVSSASTKGPSVFPLAPSSKSTSGGTAALGCLVKDYFPEPVTVSWNSGALTSGVHTFPAVLQSSGLYSLSSVVTVPSSSLGTQTYICNVNHKPSNTKVDKRVEPKSCDKTHTCPPCPAPEFEGGPSVFLFPPKPKDTLMISRTPEVTCVVVDVSHEDPEVKFNWYVDGVEVHNAKTKPREEQYNSTYRVVSVLTVLHQDWLNGKEYKCKVSNKALPASIEKTISKAKGQPREPQVCTLPPSREEMTKNQVSLSCAVKGFYPSDIAVEWESNGQPENNYKTTPPVLDSDGSFFLVSKLTVDKSRWQQGNVFSCSVMHEALHNRFTQKSLSLSPGK
chain 3: DIQLTQSPSTLSASVGDRVTITCRASESLDNYGIRFLTWFQQKPGKAPKLLMYAASNQGSGVPSRFSGSGSGTEFTLTISSLQPDDFATYYCQQTKEVPWSFGQGTKVEVKRTVAAPSVFIFPPSDEQLKSGTASVVCLLNNFYPREAKVQWKVDNALQSGNSQESVTEQDSKDSTYSLSSTLTLSKADYEKHKVYACEVTHQGLSSPVTKSFNRGEC
B2: CD3 × CD33-BspAb45 (bispecific antibody)
chain 1: EVQLVESGGGLVQPGGSLRLSCAASGFTFSRYSMNWVRQAPGKCLEWVSYISSSSSSIYYADSVKGRFTISRDNAKNSLYLQMNSLRDEDTAVYYCARDRRATLDYWGQGTLVTVSSGGGGSGGGGSGGGGSGGGGSNFMLTQPHSVSESPGKTVTISCTRSSGSIASNYVQWYQQRPGSSPTTVIYEDNQRPSGVPDRFSGSIDSSSNSASLTISGLKTEDEADYYCQSYDSSNHVFGCGTKLTVLDKTHTCPPCPAPEFEGGPSVFLFPPKPKDTLMISRTPEVTCVVVDVSHEDPEVKFNWYVDGVEVHNAKTKPREEQYNSTYRVVSVLTVLHQDWLNGKEYKCKVSNKALPASIEKTISKAKGQPREPQVYTLPPCREEMTKNQVSLWCLVKGFYPSDIAVEWESNGQPENNYKTTPPVLDSDGSFFLYSKLTVDKSRWQQGNVFSCSVMHEALHNHYTQKSLSLSPGK
chain 2: B1 chain 2
chain 3: B1 chain 3
B3: CD3 × CD33-BspAb42 (bispecific antibody)
chain 1: EVQLVESGGGLVKPGGSLRLSCAASGFTLSSYSMNWVRQAPGKCLEWVSSISRSGSYIYYADSVKGRFTISRDNAKNSLYLQMNSLRAEDTAVYYCAREKWELLYFDYWGQGTLVTVSSGGGGSGGGGSGGGGSGGGGSNFMLTQPHSVSESPGKTVTISCTRSSGSIASNYVQWYQQRPGSSPTTVIYEDNQRPSGVPDRFSGSIDSSSNSASLTISGLKTEDEADYYCQSYDSSNRVFGCGTKLTVLDKTHTCPPCPAPEFEGGPSVFLFPPKPKDTLMISRTPEVTCVVVDVSHEDPEVKFNWYVDGVEVHNAKTKPREEQYNSTYRVVSVLTVLHQDWLNGKEYKCKVSNKALPASIEKTISKAKGQPREPQVYTLPPCREEMTKNQVSLWCLVKGFYPSDIAVEWESNGQPENNYKTTPPVLDSDGSFFLYSKLTVDKSRWQQGNVFSCSVMHEALHNHYTQKSLSLSPGK
chain 2: B1 chain 2
chain 3: B1 chain 3
B4: CD3 × CD33-BspAb52 (bispecific antibody)
chain 1: not shown
chain 2: B1 chain 2
chain 3: B1 chain 3
B5: CD3 × CD33-BspAb50 (bispecific antibody)
chain 1: not shown
chain 2: B1 chain 2
chain 3: B1 chain 3
B6: CD3 × CD33-BspAb62 (bispecific antibody)
chain 1: NFMLTQPHSVSESPGKTVTISCTRSSGSIASNYVQWYQQRPGSSPTTVIYEDNQRPSGVPDRFSGSIDSSSNSASLTISGLKTEDEADYYCQSYDSSNHVFGCGTKLTVLGGGGSGGGGSGGGGSGGGGSEVQLVESGGGLVQPGGSLRLSCAASGFTFSRYSMNWVRQAPGKCLEWVSYISSSSSSIYYADSVKGRFTISRDNAKNSLYLQMNSLRDEDTAVYYCARDRRATLDYWGQGTLVTVSSDKTHTCPPCPAPEFEGGPSVFLFPPKPKDTLMISRTPEVTCVVVDVSHEDPEVKFNWYVDGVEVHNAKTKPREEQYNSTYRVVSVLTVLHQDWLNGKEYKCKVSNKALPASIEKTISKAKGQPREPQVYTLPPCREEMTKNQVSLWCLVKGFYPSDIAVEWESNGQPENNYKTTPPVLDSDGSFFLYSKLTVDKSRWQQGNVFSCSVMHEALHNHYTQKSLSLSPGK
chain 2: B1 chain 2
chain 3: B1 chain 3
B7: CD3 × CD33-BspAb37 (bispecific antibody)
chain 1: not shown
chain 2: B1 chain 2
chain 3: B1 chain 3
B8: CD3 × CD33-BspAb36 (bispecific antibody)
chain 1: not shown
chain 2: B1 chain 2
chain 3: B1 chain 3
B9: CD3 × CD33-BspAb39 (bispecific antibody)
chain 1: not shown
chain 2: B1 chain 2
chain 3: B1 chain 3
B10: CD3 × CD33-BspAb65 (bispecific antibody)
chain 1: NFMLTQPHSVSESPGKTVTIACTRSSGSIASNYVQWYQQRPGSSPTTVIYEDNQRPSGVPDRFSGSIDSSSNSASLTISGLKTEDEADYYCQSYDSSNQVFGCGTKLTVLGGGGSGGGGSGGGGSGGGGSQVTLKESGPGILQPSQTLSLTCSFSGFSLSTFGMGVGWIRQPSGKCLEWLAHIWWDDDKYYNPALKSRLTISKDTSKNQVFLKIANVDTADTATYYCARLGYYPYWFFDVWGTGTTVTVSSDKTHTCPPCPAPEFEGGPSVFLFPPKPKDTLMISRTPEVTCVVVDVSHEDPEVKFNWYVDGVEVHNAKTKPREEQYNSTYRVVSVLTVLHQDWLNGKEYKCKVSNKALPASIEKTISKAKGQPREPQVYTLPPCREEMTKNQVSLWCLVKGFYPSDIAVEWESNGQPENNYKTTPPVLDSDGSFFLYSKLTVDKSRWQQGNVFSCSVMHEALHNHYTQKSLSLSPGK
chain 2: B1 chain 2
chain 3: B1 chain 3
B11: CD3 × CD33-BspAb51 (bispecific antibody)
chain 1: not shown
chain 2: B1 chain 2
chain 3: B1 chain 3
B12: CD3 × CD33-BspAb61 (bispecific antibody)
chain 1: NFMLTQPHSVSESPGKTVTISCTRSSGSIASNYVQWYQQRPGSSPTTVIYEDNQRPSGVPDRFSGSIDSSSNSASLTISGLKTEDEADYYCQSFDNSNRVFGCGTKLTVLGGGGSGGGGSGGGGSGGGGSEVQLVESGGGLVKPGGSLRLSCAASGFTFSRYSMNWVRQAPGKCLKWVSSISSSGSYKYYADSVKGRFTISRDNAKNSLYLQMNSLRAEDTAVYYCAREPPTLGMDYWGQGTLVTVSSDKTHTCPPCPAPEFEGGPSVFLFPPKPKDTLMISRTPEVTCVVVDVSHEDPEVKFNWYVDGVEVHNAKTKPREEQYNSTYRVVSVLTVLHQDWLNGKEYKCKVSNKALPASIEKTISKAKGQPREPQVYTLPPCREEMTKNQVSLWCLVKGFYPSDIAVEWESNGQPENNYKTTPPVLDSDGSFFLYSKLTVDKSRWQQGNVFSCSVMHEALHNHYTQKSLSLSPGK
chain 2: B1 chain 2
chain 3: B1 chain 3
B13: CD3 × CD33-BspAb38 (bispecific antibody)
chain 1: not shown
chain 2: B1 chain 2
chain 3: B1 chain 3

target: T1, human CD3 (TCR/CD3 complex on the cell surface) (human, UniProt P07766 23-207; P04234 22-171; P09693 23-182); assay: flow cytometry, Pan-T cells, 1 ug/mL
T1 construct: whole, on cells; Native CD3 on human Pan-T cells or Jurkat wild-type cells; also called CD3 on Pan-T cells; CD3 on Jurkat WT cells
T1 sequence (P07766 23-207, chain 1 of 3): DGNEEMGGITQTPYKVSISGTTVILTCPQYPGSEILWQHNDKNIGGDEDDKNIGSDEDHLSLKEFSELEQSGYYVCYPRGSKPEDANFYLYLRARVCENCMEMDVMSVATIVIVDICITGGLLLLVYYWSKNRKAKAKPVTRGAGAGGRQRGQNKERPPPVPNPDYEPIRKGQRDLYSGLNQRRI
T1 sequence (P04234 22-171, chain 2 of 3): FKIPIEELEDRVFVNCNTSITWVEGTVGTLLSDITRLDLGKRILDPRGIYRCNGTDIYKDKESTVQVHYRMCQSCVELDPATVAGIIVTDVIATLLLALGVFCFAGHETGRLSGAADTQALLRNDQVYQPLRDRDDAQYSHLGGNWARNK
T1 sequence (P09693 23-182, chain 3 of 3): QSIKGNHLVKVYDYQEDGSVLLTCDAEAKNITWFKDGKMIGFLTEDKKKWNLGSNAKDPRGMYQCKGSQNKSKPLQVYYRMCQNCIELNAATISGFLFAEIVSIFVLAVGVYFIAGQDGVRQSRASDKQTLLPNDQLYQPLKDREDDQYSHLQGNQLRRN

| % Positive [%] | gMFI [gMFI] | Binder |
| --- | --- | --- |
| 2 | 2430 | B1 |

target: T1, human CD3 (TCR/CD3 complex on the cell …); assay: flow cytometry, Pan-T cells, 10 ug/mL

| % Positive [%] | gMFI [gMFI] | Binder |
| --- | --- | --- |
| 66.1 | 8340 | B1 |

target: T1, human CD3 (TCR/CD3 complex on the cell …); assay: flow cytometry, Jurkat WT cells, 1 ug/mL

| gMFI [gMFI] | Binder |
| --- | --- |
| 1950 | B1 |

target: T1, human CD3 (TCR/CD3 complex on the cell …); assay: flow cytometry, Jurkat WT cells, 10 ug/mL

| gMFI [gMFI] | Binder |
| --- | --- |
| 3760 | B1 |

target: T1, human CD3 (TCR/CD3 complex on the cell …); assay: flow cytometry, Jurkat WT gMFI over Jurkat KO gMFI, 1 ug/mL

| Jurkat WT/KO (Fold) [fold] | Binder |
| --- | --- |
| 1 | B1 |

target: T1, human CD3 (TCR/CD3 complex on the cell …); assay: flow cytometry, Jurkat WT gMFI over Jurkat KO gMFI, 10 ug/mL

| Jurkat WT/KO (Fold) [fold] | Binder |
| --- | --- |
| 2 | B1 |

target: recombinant CD3 proteins; assay: Octet (BLI), bispecific antibody against recombinant CD3 proteins

| Kd [nM] | Response | koff [s⁻¹] | kon [M⁻¹ s⁻¹] | Binder |
| --- | --- | --- | --- | --- |
| 177 | 0.58 | 0.0529 | 299000 | B2 |
| 133 | 0.51 | 0.0186 | 139000 | B3 |
| 19.5 | 0.07 | 0.00751 | 386000 | B4 |
| 125 | 0.33 | 0.00262 | 21000 | B5 |
| 85.9 | 0.25 | 0.0474 | 552000 | B6 |
| 213 | 0.34 | 0.00336 | 15800 | B7 |
| 205 | 0.42 | 0.00334 | 16300 | B8 |
| 299 | 0.1 | 0.117 | 391000 | B9 |
| 11.7 | 0.09 | 0.00134 | 114000 | B10 |
| 74 | 0.26 | 0.00232 | 31400 | B11 |
| 7.62 | 0.74 | 0.00187 | 245000 | B12 |
| 81 | 0.28 | 0.0203 | 250000 | B13 |
